The results in this text go back to publication PMC6208778, “eIF2A, an initiator tRNA carrier refractory to eIF2α kinases, functions synergistically with eIF5B” (Cellular and Molecular Life Sciences: CMLS, 2018).

Test [1] concerns the target T1, His-tagged eIF5B (587–1220) (UniProt O60841 587-1220).
T1 construct: eIF5B, residues 587–1220; The methods describe only the GST-fused eIF5B; also called purified eIF5B; source: purified
T1 sequence (looked up): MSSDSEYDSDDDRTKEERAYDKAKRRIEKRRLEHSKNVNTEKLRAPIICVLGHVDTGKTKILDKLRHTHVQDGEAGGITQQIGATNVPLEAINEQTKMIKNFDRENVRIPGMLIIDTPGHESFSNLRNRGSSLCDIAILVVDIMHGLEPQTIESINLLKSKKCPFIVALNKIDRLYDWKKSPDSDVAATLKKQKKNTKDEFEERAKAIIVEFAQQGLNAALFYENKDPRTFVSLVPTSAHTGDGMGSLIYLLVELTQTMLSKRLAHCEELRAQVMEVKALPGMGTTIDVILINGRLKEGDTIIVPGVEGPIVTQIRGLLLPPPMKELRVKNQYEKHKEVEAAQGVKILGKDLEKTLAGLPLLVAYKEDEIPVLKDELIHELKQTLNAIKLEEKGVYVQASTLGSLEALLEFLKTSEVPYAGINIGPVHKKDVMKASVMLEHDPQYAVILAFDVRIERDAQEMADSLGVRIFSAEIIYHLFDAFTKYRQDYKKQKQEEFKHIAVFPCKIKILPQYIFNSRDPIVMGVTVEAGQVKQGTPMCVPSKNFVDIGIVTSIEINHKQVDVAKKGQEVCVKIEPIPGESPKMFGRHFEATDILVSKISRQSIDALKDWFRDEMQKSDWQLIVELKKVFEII
Kind of test: co-IP; purified His-tagged eIF5B (587–1220) and GST-fused eIF2A (462–501) mixed; the former precipitated with an anti-His-conjugated resin; western blotting with anti-GST. The following applies: both partners purified.

Test [2] deals with T2, GST-fused ΔeIF5B(587–1220) (UniProt O60841 587-1220).
T2 construct: eukaryotic initiation factor 5B (eIF5B), residues 587–1220, lacking the N-terminal region; also called GST–eIF5B; GST–eIF5B (587–1220); source: E. coli BL21, purified
T2 sequence (looked up): T1 sequence (looked up)
Kind of test: pull-down; GST pull-down with recombinant proteins purified from E. coli extracts; GST fusions as bait, His–eIF2A detected by western blotting with anti-His. The following applies: both partners purified.

B1: GST–eIF2A (462–501) (domain or fragment, human, UniProt Q9BY44 462-501, looked up)
chain: HEEEPPQNMKPQSGNDKPLSKTALKNQRKHEAKKAAKQEA
notes: also called M domain; source: E. coli BL21, purified
In the case of B1, the binding result in test [1] was “binds”.

B2: His-tagged eIF2A (natural protein, human, UniProt Q9BY44 1-585, looked up)
chain: MAPSTPLLTVRGSEGLYMVNGPPHFTESTVFPRESGKNCKVCIFSKDGTLFAWGNGEKVNIISVTNKGLLHSFDLLKAVCLEFSPKNTVLATWQPYTTSKDGTAGIPNLQLYDVKTGTCLKSFIQKKMQNWCPSWSEDETLCARNVNNEVHFFENNNFNTIANKLHLQKINDFVLSPGPQPYKVAVYVPGSKGAPSFVRLYQYPNFAGPHAALANKSFFKADKVTMLWNKKATAVLVIASTDVDKTGASYYGEQTLHYIATNGESAVVQLPKNGPIYDVVWNSSSTEFCAVYGFMPAKATIFNLKCDPVFDFGTGPRNAAYYSPHGHILVLAGFGNLRGQMEVWDVKNYKLISKPVASDSTYFAWCPDGEHILTATCAPRLRVNNGYKIWHYTGSILHKYDVPSNAELWQVSWQPFLDGIFPAKTITYQAVPSEVPNEEPKVATAYRPPALRNKPITNSKLHEEEPPQNMKPQSGNDKPLSKTALKNQRKHEAKKAAKQEARSDKSPDLAPTPAPQSTPRNTVSQSISGDPEIDKKIKNLKKKLKAIEQLKEQAATGKQLEKNQLEKIQKETALLQELEDLELGI
notes: eukaryotic initiation factor 2A (eIF2A); also called His–eIF2A; eukaryotic initiation factor 2A; source: E. coli M15 (plasmid pQE31/His–eIF2A), purified
In the case of B2, the binding result in test [2] is “binds”.
